Tests used:
Assay in all cases: BLI; 25 nM WDR44 (334–389) wild type or mutant immobilised on anti-penta-His tips, […] nM Rab11; responses normalised to the mean wildtype response; 30 °C; 20 mM Hepes pH 7.5, 150 mM NaCl, 1 mM MgCl2, bovine serum albumin, 0.002% Tween-20
[1] = molecular target: Strep-His WDR44 (334–389) L370A (human) (UniProt Q5JSH3)
[2] = molecular target: Strep-His WDR44 (334–389) I359A (human) (UniProt Q5JSH3)
[3] = molecular target: Strep-His WDR44 (334–389) K360E (human) (UniProt Q5JSH3)
[4] = molecular target: Strep-His WDR44 (334–389) L354A (human) (UniProt Q5JSH3)

Measured: percent decrease in complex formation against wild type

Chain of Strep-His WDR44 (334–389) K360E (human) (Q5JSH3 334-389 K360E): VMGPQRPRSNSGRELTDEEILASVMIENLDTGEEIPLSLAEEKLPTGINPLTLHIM
Chain of Strep-His WDR44 (334–389) I359A (human) (Q5JSH3 334-389 I359A): as the sequence (Q5JSH3 334-389 K360E) above, with I26A, E27K counted along it
Chain of Strep-His WDR44 (334–389) L354A (human) (Q5JSH3 334-389 L354A): as the sequence (Q5JSH3 334-389 K360E) above, with L21A, E27K counted along it
Chain of Strep-His WDR44 (334–389) L370A (human) (Q5JSH3 334-389 L370A): as the sequence (Q5JSH3 334-389 K360E) above, with E27K, L37A counted along it

Rab11a (GTPγS-loaded) (from UniProt P62491 1-216) (natural protein)
> 95%: all assays above
